Test results published in patent US20200262877A1, “ION CHANNEL-BINDING PEPTIDES AND METHODS OF USE THEREOF” (priority 2017, published 2020).

Columns and labels:
[1] = target: Nav1.5 (Homo sapiens, UniProt Q14524); test: in vitro; details: 100% = no change; for Activity of Nav1.5 with peptide, expressed as a percentage of the reference compound: peptide at 0.2 μM; for Activity of Nav1.5 with peptide (percentage of the reference compound): peptide at 20 μM
Procedure: (§1) This example describes a method for assaying ion channel activity in cells.
(§2) Peptides were screened in duplicate at final concentrations of 20 μM and 200 nM, as determined by amino acid analysis, and diluted into HEPES buffered physiological saline (HBPS). HEK293 or CHO cells from the American Type Culture Collection (ATCC) were transfected with the appropriate ion channel before use. HEK293 cells were grown in Dulbecco's Modified Eagle Medium/Nutrient Mixture F-12, and CHO cells were cultured in Ham's F-12 media. All cultures were supplemented with 10% fetal bovine serum, 100 U/ml penicillin G, 100 μg/ml streptomycin sulfate, and the appropriate selection antibiotics. Prior to use, cells were washed twice with Hank's Balanced Salt Solution, and treated with Accutase cell detachment solution (Sigma-Aldrich). Cells were then washed. Peptides and controls were incubated with cells for at least five minutes.
(§3) Percent inhibition was defined as: (1-(Ipeptide/Icontrol))×100%).
(§4) Percent values were calculated using the following formula: % activation=(IPeptide/Icontrol)×100%, where IPeptide is the current produced by co-application a peptide with agonist, and Icontrol refers to the current produced by stimulation in control. Control used for each ion channel is the reference compound matched to a particular channel, as illustrated in TABLE 10 below.

[2] = target: hERG (Homo sapiens, UniProt Q12809); test: in vitro; details: 100% = no change, <100% = inhibition
Procedure: as §1, §2, §3, §4

[3] = target: T1, TRPV1 (Homo sapiens, UniProt Q8NER1); test: Ion channel panel (IonWorks Barracuda): TRPV1; format: cell-based; details: 100% = no change, <100% = inhibition
T1 construct: host or cells: HEK293 or CHO
Procedure: as §1, §2, §3, §4

[4] = target: T2, Nav1.7 (Homo sapiens, UniProt Q15858); test: cell-based; format: cell-based; details: 100% = no change; for Activity of Nav1.7 with peptide, expressed as a percentage of the reference compound: peptide at 0.2 μM; for Activity of Nav1.7 with peptide (percentage of the reference compound): peptide at 20 μM
T2 construct: host or cells: HEK293 or CHO
Procedure: as §1
as §2, with “Peptides were screened in duplicate at final concentrations of 20 μM and 200 nM, as determined by amino acid analysis, and diluted into HEPES buffered physiological saline (HBPS).” left out
as §3, §4

[5] = target: T3, Kv1.3 (Homo sapiens, UniProt P22001); test: cell-based; format: cell-based; details: 100% = no change, <100% = inhibition
T3 construct: host or cells: HEK293 or CHO
Procedure: as §1, §2, §3, §4

[6] = target: T4, Kv1.2 (Homo sapiens, UniProt P16389); test: cell-based; format: cell-based; details: 100% = no change, <100% = inhibition
T4 construct: host or cells: HEK293 or CHO
Procedure: as §1, §2, §3, §4

[7] = target: T5, Kv1.1 (Homo sapiens, UniProt Q09470); test: cell-based; format: cell-based; details: 100% = no change, <100% = inhibition
T5 construct: host or cells: HEK293 or CHO
Procedure: as §1, §2, §3, §4

[8] = target: T6, 5HT3a (Homo sapiens, UniProt P46098); test: Ion channel panel (IonWorks Barracuda): 5HT3a; format: cell-based
T6 construct: host or cells: HEK293 or CHO
T6 sequence (P46098 whole entry, looked up): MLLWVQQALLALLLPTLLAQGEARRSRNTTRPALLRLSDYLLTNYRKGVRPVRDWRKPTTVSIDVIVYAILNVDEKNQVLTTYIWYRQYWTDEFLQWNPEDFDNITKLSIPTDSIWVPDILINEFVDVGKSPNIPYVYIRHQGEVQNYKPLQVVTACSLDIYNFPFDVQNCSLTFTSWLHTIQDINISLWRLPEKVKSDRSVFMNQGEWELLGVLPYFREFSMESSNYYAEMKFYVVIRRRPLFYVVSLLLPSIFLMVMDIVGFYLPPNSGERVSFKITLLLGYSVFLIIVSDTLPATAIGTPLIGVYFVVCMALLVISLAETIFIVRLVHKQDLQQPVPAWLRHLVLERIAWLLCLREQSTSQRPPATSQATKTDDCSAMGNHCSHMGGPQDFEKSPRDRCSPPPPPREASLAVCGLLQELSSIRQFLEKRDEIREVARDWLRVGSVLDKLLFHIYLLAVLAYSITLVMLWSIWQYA
Procedure: as §1, §2, §3, §4

[9] = tested on: GABA; test: Ion channel panel (IonWorks Barracuda): GABA; format: cell-based; details: 100% = no change, <100% = inhibition
Procedure: as §1, §2, §3, §4

[10] = target: T7, α4β2 (Homo sapiens, UniProt P17787+P43681); test: Ion channel panel (IonWorks Barracuda): α4β2; format: cell-based; details: 100% = no change, <100% = inhibition
T7 construct: host or cells: HEK293 or CHO
Procedure: as §1, §2, §3, §4

[11] = target: T8, NR2A (Homo sapiens, UniProt Q12879); test: Ion channel panel (IonWorks Barracuda): NR2A; format: cell-based; details: 100% = no change, <100% = inhibition
T8 construct: host or cells: HEK293 or CHO
Procedure: as §1, §2, §3, §4

[12] = target: T9, Cav2.1 (Homo sapiens, UniProt O00555); test: cell-based; details: 100% = no change, <100% = inhibition
T9 construct: host or cells: HEK293 or CHO
Procedure: as §1, §2, §3, §4

[13] = target: T10, Kv2.1 (Homo sapiens, UniProt Q14721); test: cell-based; details: 100% = no change, <100% = inhibition
T10 construct: host or cells: HEK293 or CHO
Procedure: as §1, §2, §3, §4

[14] = target: T11, Cav2.2 (Homo sapiens, UniProt Q00975); test: cell-based; details: 100% = no change, <100% = inhibition
T11 construct: host or cells: HEK293 or CHO
Procedure: as §1, §2, §3, §4

[15] = target: T12, NR2B (Homo sapiens, UniProt Q13224); test: Ion channel panel (IonWorks Barracuda): NR2B; format: cell-based; details: 100% = no change, <100% = inhibition
T12 construct: host or cells: HEK293 or CHO
Procedure: as §1, §2, §3, §4

[16] = target: T13, TRPA1 (Homo sapiens, UniProt O75762); test: Ion channel panel (IonWorks Barracuda): TRPA1; format: cell-based; details: 100% = no change, <100% = inhibition
T13 construct: host or cells: HEK293 or CHO
Procedure: as §1, §2, §3, §4

[17] = target: T14, Kir2.1 (Homo sapiens, UniProt P63252); test: Ion channel panel (IonWorks Barracuda): Kir2.1; format: cell-based; details: 100% = no change, <100% = inhibition
T14 construct: host or cells: HEK293 or CHO
Procedure: as §1, §2, §3, §4

[18] = target: T15, α3β4 (Homo sapiens, UniProt P30926+P32297); test: Ion channel panel (IonWorks Barracuda): α3β4; format: cell-based; details: 100% = no change, <100% = inhibition
T15 construct: host or cells: HEK293 or CHO
Procedure: as §1, §2, §3, §4

[19] = first of two Nav1.5 columns (probably TP1)
[20] = second of two Nav1.5 columns (probably TP2)
[21] = first of two Nav1.7 columns (probably TP1)
[22] = second of two Nav1.7 columns (probably TP2)

T2 sequence (Q15858 whole entry): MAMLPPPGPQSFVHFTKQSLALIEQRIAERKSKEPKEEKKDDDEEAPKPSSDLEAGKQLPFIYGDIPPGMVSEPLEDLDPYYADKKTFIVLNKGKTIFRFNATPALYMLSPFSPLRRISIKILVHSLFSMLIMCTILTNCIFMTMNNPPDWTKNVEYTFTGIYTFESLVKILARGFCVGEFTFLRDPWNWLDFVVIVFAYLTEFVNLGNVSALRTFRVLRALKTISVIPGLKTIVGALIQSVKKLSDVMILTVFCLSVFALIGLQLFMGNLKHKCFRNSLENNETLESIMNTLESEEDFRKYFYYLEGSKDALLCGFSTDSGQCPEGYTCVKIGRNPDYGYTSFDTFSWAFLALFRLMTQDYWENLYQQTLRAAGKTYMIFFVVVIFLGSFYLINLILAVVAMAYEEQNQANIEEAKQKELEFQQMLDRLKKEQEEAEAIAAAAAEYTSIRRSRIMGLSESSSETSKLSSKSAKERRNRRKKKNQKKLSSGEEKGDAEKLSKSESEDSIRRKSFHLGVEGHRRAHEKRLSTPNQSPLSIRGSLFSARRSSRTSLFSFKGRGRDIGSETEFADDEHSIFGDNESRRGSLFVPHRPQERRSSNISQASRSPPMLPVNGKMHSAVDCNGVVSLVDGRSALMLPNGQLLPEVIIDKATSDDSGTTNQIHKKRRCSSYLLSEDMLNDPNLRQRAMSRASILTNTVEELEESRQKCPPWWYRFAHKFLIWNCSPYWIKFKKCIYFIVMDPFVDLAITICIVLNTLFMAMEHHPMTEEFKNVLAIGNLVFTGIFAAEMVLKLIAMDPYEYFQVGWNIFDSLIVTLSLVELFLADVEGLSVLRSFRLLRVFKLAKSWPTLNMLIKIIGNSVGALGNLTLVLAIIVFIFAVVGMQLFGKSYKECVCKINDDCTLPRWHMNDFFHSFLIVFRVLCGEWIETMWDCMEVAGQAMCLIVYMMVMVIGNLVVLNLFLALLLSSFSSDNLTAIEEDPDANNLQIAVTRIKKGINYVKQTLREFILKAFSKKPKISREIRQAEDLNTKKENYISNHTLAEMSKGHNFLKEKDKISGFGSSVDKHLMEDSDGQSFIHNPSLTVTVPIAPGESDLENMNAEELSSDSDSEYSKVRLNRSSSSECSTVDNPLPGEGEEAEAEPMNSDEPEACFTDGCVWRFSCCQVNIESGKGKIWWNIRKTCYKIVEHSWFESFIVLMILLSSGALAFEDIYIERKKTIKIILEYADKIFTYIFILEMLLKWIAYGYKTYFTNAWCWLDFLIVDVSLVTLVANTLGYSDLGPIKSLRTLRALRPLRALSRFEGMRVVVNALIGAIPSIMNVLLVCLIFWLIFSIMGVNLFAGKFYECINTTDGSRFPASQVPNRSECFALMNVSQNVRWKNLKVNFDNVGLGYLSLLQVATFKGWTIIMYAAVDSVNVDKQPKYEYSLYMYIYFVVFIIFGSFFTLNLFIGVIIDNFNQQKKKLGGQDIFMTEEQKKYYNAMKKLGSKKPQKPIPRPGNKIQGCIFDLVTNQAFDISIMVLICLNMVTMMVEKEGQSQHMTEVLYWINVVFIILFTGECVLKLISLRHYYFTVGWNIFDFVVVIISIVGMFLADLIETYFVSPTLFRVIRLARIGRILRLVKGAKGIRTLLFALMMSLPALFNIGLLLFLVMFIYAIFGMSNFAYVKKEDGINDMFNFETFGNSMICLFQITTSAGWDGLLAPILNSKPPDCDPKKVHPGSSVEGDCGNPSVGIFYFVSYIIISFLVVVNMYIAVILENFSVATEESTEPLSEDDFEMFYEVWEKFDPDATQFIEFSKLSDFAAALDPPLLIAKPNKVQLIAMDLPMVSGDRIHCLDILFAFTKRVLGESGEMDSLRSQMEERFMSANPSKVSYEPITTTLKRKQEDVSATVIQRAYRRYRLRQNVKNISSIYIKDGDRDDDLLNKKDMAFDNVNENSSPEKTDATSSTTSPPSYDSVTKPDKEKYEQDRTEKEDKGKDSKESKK
Nav1.5, sequence (Q14524 whole entry): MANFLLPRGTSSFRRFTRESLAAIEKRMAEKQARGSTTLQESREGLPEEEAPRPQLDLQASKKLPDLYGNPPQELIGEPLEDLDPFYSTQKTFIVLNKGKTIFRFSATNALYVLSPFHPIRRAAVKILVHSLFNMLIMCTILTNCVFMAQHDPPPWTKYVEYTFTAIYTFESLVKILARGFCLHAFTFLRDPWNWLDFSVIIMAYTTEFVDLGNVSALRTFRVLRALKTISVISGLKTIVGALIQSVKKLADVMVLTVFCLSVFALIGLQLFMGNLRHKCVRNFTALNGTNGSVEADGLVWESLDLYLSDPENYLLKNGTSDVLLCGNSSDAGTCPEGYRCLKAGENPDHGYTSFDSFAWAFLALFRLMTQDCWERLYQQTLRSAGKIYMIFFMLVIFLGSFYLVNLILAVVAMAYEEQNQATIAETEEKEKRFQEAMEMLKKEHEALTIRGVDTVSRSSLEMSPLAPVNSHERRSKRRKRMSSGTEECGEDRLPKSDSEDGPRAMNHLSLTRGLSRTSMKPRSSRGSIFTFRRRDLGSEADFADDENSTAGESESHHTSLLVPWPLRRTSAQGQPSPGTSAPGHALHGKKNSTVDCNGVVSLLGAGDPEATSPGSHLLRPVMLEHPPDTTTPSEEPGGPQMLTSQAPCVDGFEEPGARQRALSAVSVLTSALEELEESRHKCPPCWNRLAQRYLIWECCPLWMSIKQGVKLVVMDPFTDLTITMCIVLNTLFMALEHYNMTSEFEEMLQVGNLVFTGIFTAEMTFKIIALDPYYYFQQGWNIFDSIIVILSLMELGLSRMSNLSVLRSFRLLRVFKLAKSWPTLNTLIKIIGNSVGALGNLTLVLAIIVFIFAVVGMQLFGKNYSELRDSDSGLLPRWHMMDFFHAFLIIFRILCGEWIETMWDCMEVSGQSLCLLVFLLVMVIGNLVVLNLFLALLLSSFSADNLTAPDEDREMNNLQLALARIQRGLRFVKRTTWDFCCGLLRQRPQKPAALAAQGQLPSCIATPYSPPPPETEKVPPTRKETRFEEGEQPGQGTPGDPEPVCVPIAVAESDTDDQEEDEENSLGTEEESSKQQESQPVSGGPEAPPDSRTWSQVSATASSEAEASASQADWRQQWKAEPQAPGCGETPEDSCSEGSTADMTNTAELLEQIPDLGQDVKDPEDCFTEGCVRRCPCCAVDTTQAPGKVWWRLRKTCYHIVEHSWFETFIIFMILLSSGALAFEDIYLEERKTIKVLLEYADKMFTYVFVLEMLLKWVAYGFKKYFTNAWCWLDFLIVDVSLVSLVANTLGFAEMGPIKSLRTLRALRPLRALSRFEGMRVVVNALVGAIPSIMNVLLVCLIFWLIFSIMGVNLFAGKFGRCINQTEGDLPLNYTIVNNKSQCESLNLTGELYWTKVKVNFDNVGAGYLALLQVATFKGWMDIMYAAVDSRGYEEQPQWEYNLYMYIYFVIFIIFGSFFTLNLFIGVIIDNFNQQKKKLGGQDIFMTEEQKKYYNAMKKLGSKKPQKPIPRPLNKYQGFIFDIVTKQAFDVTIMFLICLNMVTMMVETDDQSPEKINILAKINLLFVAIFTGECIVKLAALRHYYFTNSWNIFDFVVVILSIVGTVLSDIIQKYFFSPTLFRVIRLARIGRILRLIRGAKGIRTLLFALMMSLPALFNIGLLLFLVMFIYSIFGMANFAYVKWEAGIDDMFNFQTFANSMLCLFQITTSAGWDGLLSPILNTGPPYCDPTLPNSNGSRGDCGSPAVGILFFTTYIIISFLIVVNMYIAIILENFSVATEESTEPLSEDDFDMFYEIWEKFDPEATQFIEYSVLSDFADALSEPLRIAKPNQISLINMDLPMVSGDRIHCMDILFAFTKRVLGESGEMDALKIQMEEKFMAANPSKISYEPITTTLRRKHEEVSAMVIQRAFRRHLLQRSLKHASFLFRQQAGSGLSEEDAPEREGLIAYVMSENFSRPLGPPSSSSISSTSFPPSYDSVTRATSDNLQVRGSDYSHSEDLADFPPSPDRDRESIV
T15 sequence (P30926 22-498): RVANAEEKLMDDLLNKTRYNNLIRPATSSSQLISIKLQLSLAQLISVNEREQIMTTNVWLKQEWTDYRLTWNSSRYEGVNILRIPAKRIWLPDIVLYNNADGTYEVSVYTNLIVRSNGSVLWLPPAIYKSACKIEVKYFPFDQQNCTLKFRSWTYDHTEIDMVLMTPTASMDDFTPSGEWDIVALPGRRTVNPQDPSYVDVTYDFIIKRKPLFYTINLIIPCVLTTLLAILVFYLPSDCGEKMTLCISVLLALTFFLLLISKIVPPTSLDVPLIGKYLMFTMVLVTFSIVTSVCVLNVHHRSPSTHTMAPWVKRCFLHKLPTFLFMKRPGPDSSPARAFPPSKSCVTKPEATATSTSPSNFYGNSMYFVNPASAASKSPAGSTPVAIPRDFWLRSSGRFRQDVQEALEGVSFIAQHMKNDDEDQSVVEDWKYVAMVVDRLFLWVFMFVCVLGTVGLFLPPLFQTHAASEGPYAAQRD
T15 sequence (P32297 32-505): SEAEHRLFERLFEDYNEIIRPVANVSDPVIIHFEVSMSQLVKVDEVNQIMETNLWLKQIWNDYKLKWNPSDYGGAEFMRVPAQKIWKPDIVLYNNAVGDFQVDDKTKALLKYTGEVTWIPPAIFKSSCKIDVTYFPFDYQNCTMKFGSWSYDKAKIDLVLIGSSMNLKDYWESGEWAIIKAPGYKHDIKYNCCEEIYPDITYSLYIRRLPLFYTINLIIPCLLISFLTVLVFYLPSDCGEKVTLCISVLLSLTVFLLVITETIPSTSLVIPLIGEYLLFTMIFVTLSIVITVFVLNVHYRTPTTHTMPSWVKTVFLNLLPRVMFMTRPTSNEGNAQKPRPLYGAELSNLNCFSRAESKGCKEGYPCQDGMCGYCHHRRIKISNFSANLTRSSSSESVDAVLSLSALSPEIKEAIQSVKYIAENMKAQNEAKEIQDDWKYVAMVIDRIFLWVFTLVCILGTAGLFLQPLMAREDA

5 (GSGVPINVKCRGSRDCLDPCKKAGMRFGKCINSKCHCTP) [compound 5]
Activity of Nav1.5 with peptide, expressed as a percentage of the reference compound [1, 19]: 107%
Activity of Nav1.5 with peptide, expressed as a percentage of the reference compound [1, 20]: 107%
Activity of Nav1.5 with peptide (percentage of the reference compound) [1, 19]: 103%
Activity of Nav1.5 with peptide (percentage of the reference compound) [1, 20]: 105%
Activity of hERG with peptide, expressed as a percentage of the reference compound ([2]; peptide at 0.2 μM): 106%
Activity of hERG with peptide (percentage of the reference compound) ([2]; peptide at 20 μM): 67%
Activity of TRPV1 with peptide, expressed as a percentage of the reference compound ([3]; peptide at 0.2 μM): 101%
Activity of TRPV1 with peptide (percentage of the reference compound) ([3]; peptide at 20 μM): 101%
Activity of Nav1.7 with peptide, expressed as a percentage of the reference compound [4, 21]: 98%
Activity of Nav1.7 with peptide, expressed as a percentage of the reference compound [4, 22]: 109%
Activity of Nav1.7 with peptide (percentage of the reference compound) [4, 21]: 79%
Activity of Nav1.7 with peptide (percentage of the reference compound) [4, 22]: 66%
Activity of Kv1.3 with peptide, expressed as a percentage of the reference compound ([5]; peptide at 0.2 μM): 98%
Activity of Kv1.3 with peptide (percentage of the reference compound) ([5]; peptide at 20 μM): 28%
Activity of Kv1.2 with peptide, expressed as a percentage of the reference compound ([6]; peptide at 0.2 μM): 89%
Activity of Kv1.2 with peptide (percentage of the reference compound) ([6]; peptide at 20 μM): 73%
Activity of Kv1.1 with peptide, expressed as a percentage of the reference compound ([7]; peptide at 0.2 μM): 86%
Activity of Kv1.1 with peptide (percentage of the reference compound) ([7]; peptide at 20 μM): 55%
Activity of 5HT3a with peptide (percentage of the reference compound) [8]: 80%
Activity of 5HT3a with peptide, expressed as a percentage of the reference compound [8]: 94%
Activity of GABA with peptide, expressed as a percentage of the reference compound ([9]; peptide at 0.2 μM): 109%
Activity of GABA with peptide (percentage of the reference compound) ([9]; peptide at 20 μM): 114%
Activity of a4b2 with peptide, expressed as a percentage of the reference compound ([10]; peptide at 0.2 μM): 83%
Activity of a4b2 with peptide (percentage of the reference compound) ([10]; peptide at 20 μM): 93%
Activity of NR2A with peptide, expressed as a percentage of the reference compound ([11]; peptide at 0.2 μM): 109%
Activity of NR2A with peptide (percentage of the reference compound) ([11]; peptide at 20 μM): 86%
Activity of Cav2.1 with peptide, expressed as a percentage of the reference compound ([12]; peptide at 0.2 μM): 100%
Activity of Cav2.1 with peptide (percentage of the reference compound) ([12]; peptide at 20 μM): 121%
Activity of Kv2.1 with peptide, expressed as a percentage of the reference compound ([13]; peptide at 0.2 μM): 110%
Activity of Kv2.1 with peptide (percentage of the reference compound) ([13]; peptide at 20 μM): 109%
Activity of Cav2.2 with peptide, expressed as a percentage of the reference compound ([14]; peptide at 0.2 μM): 94%
Activity of Cav2.2 with peptide (percentage of the reference compound) ([14]; peptide at 20 μM): 117%
Activity of NR2B with peptide, expressed as a percentage of the reference compound ([15]; peptide at 0.2 μM): 112%
Activity of NR2B with peptide (percentage of the reference compound) ([15]; peptide at 20 μM): 95%
Activity of TRPA1 with peptide, expressed as a percentage of the reference compound ([16]; peptide at 0.2 μM): 119%
Activity of TRPA1 with peptide (percentage of the reference compound) ([16]; peptide at 20 μM): 75%
Activity of Kir2.1 with peptide, expressed as a percentage of the reference compound ([17]; peptide at 0.2 μM): 103%
Activity of Kir2.1 with peptide (percentage of the reference compound) ([17]; peptide at 20 μM): 86%
Activity of a3b4 with peptide, expressed as a percentage of the reference compound ([18]; peptide at 0.2 μM): 104%
Activity of a3b4 with peptide (percentage of the reference compound) ([18]; peptide at 20 μM): 90%
